Assay results reported in article PMC3390373.

Target: FLAG-tagged C-terminally truncated RPS0A (residues 1–197) (S. cerevisiae) (UniProt P32905)
Test: co-IP; WCE of H2880 wt cells overexpressing wt or C-terminally truncated RPS0A-FLAG; anti-FLAG M2 affinity matrix, 60 min, 4°C, buffer A200T (200 mM KCl, 20 mM Tris pH 8, 5 mM Mg acetate, 1 mM DTT, 0.2% Triton X-100); whole 40S subunits with their associated eIFs are recovered through the tagged RPS0A; Western blot, normalised to ASC1 (Figure 5B)

Sequence of UniProt P32905 (P32905 1-197): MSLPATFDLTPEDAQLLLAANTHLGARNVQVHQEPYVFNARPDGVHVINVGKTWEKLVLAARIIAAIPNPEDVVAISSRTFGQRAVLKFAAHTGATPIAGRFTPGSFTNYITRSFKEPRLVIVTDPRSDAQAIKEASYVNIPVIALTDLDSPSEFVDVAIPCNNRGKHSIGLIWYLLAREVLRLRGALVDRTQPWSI

Substance “eIF2 (from UniProt P32481 1-527) (complex)” has a percent reduction of the co-purified amount against wt RPS0A-FLAG of 70%.
